# Laboratory results reported in PMC6044470.
# Biological target: Chaetomium thermophilum Cdc48 (Chaetomium thermophilum)
# Experiment: cryo-EM structure
row,stoichiometry N,Substance
1,6,Chaetomium thermophilum Cdc48 (enzyme)
2,1,Ufd1/Npl4 heterodimer (UN) from Chaetomium thermophilum (complex)
